Results reported in paper doi:10.1101/2025.06.13.659598.

Tests used:
[1] = target: nesprin-2G SR11-12 (spectrin repeats 11-12 of human nesprin-2) (human); assay: BLI
[2] = target: nesprin-2G SR11-13 (spectrin repeats 11-13 of human nesprin-2) (human); assay: BLI

Kd [1]: 472 nM
Kd [2]: 92 nM
B1: FHOD1 SRBD-DID (amino terminal construct of human FHOD1) (domain or fragment)
chain: SVVTVRVQYLEDTDPFACANFPEPRRAPTCSLDGALPLGAQIPAVHRLLGAPLKLEDCALQVSPSGYYLDTELSLEEQREMLEGFYEEISKGRKPTLILRTQLSVRVNAILEKLYSSSGPELRRSLFSLKQIFQEDKDLVPEFVHSEGLSCLIRVGAAADHNYQSYILRALGQLMLFVDGMLGVVAHSDTIQWLYTLCASLSRLVVKTALKLLLVFVEYSENNAPLFIRAVNSVASTTGAPPWANLVSILEEKNGADPELLVYTVTLINKTLAALPDQDSFYDVTDALEQQGMEALVQRHLGTAGTDVDLRTQLVLYENAL
